Measured values taken from patent US20230381183A1, “USE OF FOLIC ACID AND FOLATE MODIFICATION IN INDUCING B-CELL IMMUNE TOLERANCE AND TARGETING mIgM-POSITIVELY-EXPRESSED B-CELL LYMPHOMA” (FUDAN UNIVERSITY, priority 2020, published 2023).

B1: FA-OVA: folate-modified ovalbumin complex, EDC coupling of folic acid to OVA (conjugate, UniProt P01012 2-386, looked up)
Ovalbumin: GSIGAASMEFCFDVFKELKVHHANENIFYCPIAIMSALAMVYLGAKDSTRTQINKVVRFDKLPGFGDSIEAQCGTSVNVHSSLRDILNQITKPNDVYSFSLASRLYAEERYPILPEYLQCVKELYRGGLEPINFQTAADQARELINSWVESQTNGIIRNVLQPSSVDSQTAMVLVNAIVFKGLWEKAFKDEDTQAMPFRVTEQESKPVQMMYQIGLFRVASMASEKMKILELPFASGTMSMLVLLPDEVSGLEQLESIINFEKLTEWTSSNVMEERKIKVYLPRMKMEEKYNLTSVLMAMGITDVFSSSANLSGISSAESLKISQAVHAAHAEINEAGREVVGSAEAGVDAASVSEEFRADHPFLFCIKHIATNAVLFFGRCVSP
modifications: folate via EDC coupling
B2: OVA: ovalbumin, model protein and allergen (protein, UniProt P01012 2-386, looked up)
Ovalbumin: B1 Ovalbumin

Legend:
[1] = tested on: anaphylactic shock induced by OVA (allergen); assay: Prevention of anaphylactic shock: pretreatment, then OVA challenge; assay type: in vivo; settings: pretreatment 10 μg OVA/mouse iv weekly x3, challenge 10 μg OVA
Description: The BALB/c female mice (5 weeks old) were randomly divided into FA-OVA group, OVA group and physiological saline group, with 10 mice in each group. FA-OVA or OVA or physiological saline of an equal volume was administered to the mice via tail vein injection at a dose of 10 μg OVA/mouse, once a week for a total of three times. One week after the last administration, each mouse was injected with 10 μg OVA (allergen) via tail vein. Changes in body temperature of the mice within 2 hours after OVA stimulation were recorded (FIG. 18). In the meanwhile, the serum was collected from the mice, and was measured by ELISA for the expression of OVA-specific antibodies in the serum (FIG. 19). […] Therefore, folate modification can effectively prevent anaphylactic shock induced by allergens.

[2] = tested on: anaphylactic shock in OVA-sensitized mice; assay: Treatment of anaphylactic shock: OVA-sensitized mice treated, then OVA challenge; assay type: in vivo, BALB/c female mice; settings: 4 μg/mouse iv every two days x3, challenge 25 μg OVA
Description: The BALB/c female mice (5 weeks old) were subcutaneously injected with 10 μg OVA for sensitization, once a week, three times in total. One week after the last sensitization, the OVA-sensitized mice were injected with FA-OVA, OVA and physiological saline via tail vein at a dose of 4 μg/mouse, once every two days for three times in total. After the last administration, the mice were injected with 25 μg OVA (allergen) via tail vein. Changes in body temperature of the mice within 2 hours after the injection were recorded (FIG. 20). In the meanwhile, the serum was collected from the mice and was measured by ELISA for the level of the OVA-specific antibodies in the serum (FIG. 21). The mice without OVA sensitization but stimulated by tail vein injection of OVA served as the Naïve control group.

OVA-specific antibodies = assay: Serum OVA-specific antibodies by ELISA after three weekly injections; assay type: in vivo, BALB/c female mice; settings: 10 μg/mouse tail vein, once a week, three times; one week after last administration
Source text: (§1) The role of folate modification in mediating humoral immunosuppression and in reducing Anti-Drug Antibodies (ADA) of biomacromolecular drugs was investragated by using ovalbumin (OVA) as a model protein. OVA has strong immunogenicity and can induce the body to produce an immune response. Repeated stimulation of mice by OVA can cause the mice to produce lots of specific antibodies. The BALB/c female mice (5 weeks old) were randomly divided into FA-OVA (folate-OVA complex. Example 1) group, OVA group and physiological saline control group, with 6 mice in each group. FA-OVA, OVA and physiological saline were administered to mice via tail vein injection at a dose of 10 μg/mouse, once a week, three times in total.
One week after the last administration, the serum of the mice was collected and was measured by ELISA for the expression of OVA-specific antibodies in the serum. The results are shown in FIG. 12, wherein FIGS. 12a, 12b, 12c and 12d show the results of OVA-specific IgE, IgG, IgG1 and IgG2a, respectively.

splenic B lymphocytes = assay: Splenic B lymphocyte proliferation (CD86) and differentiation (GL-7) after three weekly injections; assay type: in vivo, BALB/c female mice; settings: 10 μg/mouse tail vein, once a week, three times; one week after last administration
Source text: as §1
One week after the last administration, the spleen lymphocyte suspension was collected and subjected to flow cytometry for analysis of proliferation and differentiation of splenic B lymphocytes. CD86 was used as a marker for cell proliferation, and GL-7 was used as germinal center B-cell surface marker. FIGS. 11a and 11b provide the CD86 flow sorting graphs and statistical analysis results of mouse spleen lymphocytes, respectively. FIGS. 11c and 11d provide the GL7 flow sorting graphs and statistical analysis results of mouse spleen lymphocytes, respectively.

[3] = Water solubility (observation on preparation); assay type: physicochemical
[4] = Blood routine analysis one week after last administration; assay type: in vivo, BALB/c female mice; settings: 10 μg/mouse tail vein weekly x3
Source text: as §1
In addition, the whole blood of the mice was collected one week after the last administration for blood routine analysis.

Row | Molecule | body temperature within 2 hours after OVA stimulation [1] | serum OVA-specific antibodies (IgE, IgG1, IgG2a) after challenge [1] | expression of OVA-specific antibodies in the serum (IgE, IgG, IgG1, IgG2a) (OVA-specific antibodies) | proliferation of B-cell (CD86) and differentiation into germinal center B-cell (GL-7) (splenic B lymphocytes) | BASO [4] | HCT [4] | HGB [4] | LYMPH [4] | MCH [4] | MCHC [4] | MCV [4] | MONO [4] | MPV [4] | NEYT [4] | NRBC [4] | P-LCR [4] | PCT [4] | PDW [4] | PLT [4] | RBC [4] | other results
1 | FA-OVA: folate-modified ovalbumin complex, EDC coupling of folic acid to OVA | did not change significantly | substantially comparable to the physiological saline group | significantly inhibited | significantly inhibited | – | – | – | – | – | – | – | – | – | – | – | – | – | – | – | – | effect of treatment on anaphylaxis (body temperature curve) [2]: desensitizing effect; expressions of OVA-specific antibodies IgE, IgG1 and IgC2a in serum [2]: comparable to those in the physiological saline group and significantly decreased compared with those in the OVA group; time for body temperature to return to normal after OVA challenge [2]: ≤ 2 h
2 | OVA: ovalbumin, model protein and allergen [reference compound] | dropped significantly | a large number of OVA-specific antibodies | a large amount of OVA-specific antibodies | proliferated significantly and differentiated into the germinal center B-cell | – | – | – | – | – | – | – | – | – | – | – | – | – | – | – | – | –
3 | B1 | – | – | – | – | 0 10*9/L | 49.83 ± 4.53% | 161.50 ± 9.26 g/L | 2.78 ± 0.19 10*9/L | 16.28 ± 0.59 pg | 325.00 ± 12.35 g/L | 50.075 ± 1.37 fL | 0.035 ± 0.0058 10*9/L | 7.05 ± 0.058 fL | 0.94 ± 0.23 10*9/L | 0.015 ± 0.013 10*9/L | 4.35 ± 1.01% | 0.41 ± 0.042% | 5.58 ± 0.096 fL | 586.50 ± 59.29 10*9/L | 9.96 ± 0.89 10*12/L | water solubility [3]: easily soluble in water; RDW-CV [4]: 14.78 ± 0.50%; WBC [4]: 3.77 ± 0.42 10*9/L
4 | B2 | – | – | – | – | 0 10*9/L | 52.15 ± 5.97% | 169.25 ± 13.45 g/L | 2.58 ± 0.29 10*9/L | 16.08 ± 0.67 pg | 325.75 ± 16.50 g/L | 49.43 ± 0.43 fL | 0.035 ± 0.017 10*9/L | 7.10 ± 0.14 fL | 0.80 ± 0.21 10*9/L | 0.025 ± 0.013 10*9/L | 5.15 ± 1.48% | 0.45 ± 0.016% | 5.53 ± 0.15 fL | 635.00 ± 36.59 10*9/L | 10.55 ± 1.13 10*12/L | anaphylactic shock / death after OVA challenge ([1]; 10 mice per group): two mice died; RDW-CV [4]: 14.63 ± 0.33%; WBC [4]: 3.43 ± 0.51 10*9/L
